Experimental data: PMC9000915

Molecular target: gp41 subunit of ADA.CM.v4 Env on hVLPs (CTD truncated, stop codon at 756) (HIV-1 (subtype B isolate ADA))
Assay: cryo-EM structure; cryo-ET with sub-tomogram averaging of Env on purified, AT-2-treated ADA.CM.v4 hVLPs; C3 map 9.13 Å, C1 map 10.67 Å; PDB 6ULC fitted as rigid body

Question: With “gp41 subunit of ADA.CM.v4 Env on hVLPs (CTD truncated, stop codon at 756) (natural protein)” as the substance, how does the stoichiometry N read?
Answer: 3
